One may read the stoichiometry N as the number of molecules, sites or subunits per partner or assembly.

Where only a bound is given, the exact number is not on record here.

Data on one protein can be found in publication PMC6927645, “Self-association of human beta-galactocerebrosidase: Dependence on pH, salt, and surfactant” (PLoS ONE, 2019).

The data set concerns the molecule itself. Description: AUC; sedimentation velocity dilution series, 40,000 rpm, 20°C, Rayleigh optics; 5 mM sodium phosphate pH 6.0 with 50, 150 or 500 mM NaCl; Wide Distribution Analysis and fits in SedAnal; self-association of monomer to higher oligomers.

B1: recombinant human galactocerebrosidase (hGALC) (enzyme, UniProt P54803 43-685, looked up)
chain: YVLDDSDGLGREFDGIGAVSGGGATSRLLVNYPEPYRSQILDYLFKPNFGASLHILKVEIGGDGQTTDGTEPSHMHYALDENYFRGYEWWLMKEAKKRNPNITLIGLPWSFPGWLGKGFDWPYVNLQLTAYYVVTWIVGAKRYHDLDIDYIGIWNERSYNANYIKILRKMLNYQGLQRVKIIASDNLWESISASMLLDAELFKVVDVIGAHYPGTHSAKDAKLTGKKLWSSEDFSTLNSDMGAGCWGRILNQNYINGYMTSTIAWNLVASYYEQLPYGRCGLMTAQEPWSGHYVVESPVWVSAHTTQFTQPGWYYLKTVGHLEKGGSYVALTDGLGNLTIIIETMSHKHSKCIRPFLPYFNVSQQFATFVLKGSFSEIPELQVWYTKLGKTSERFLFKQLDSLWLLDSDGSFTLSLHEDELFTLTTLTTGRKGSYPLPPKSQPFPSTYKDDFNVDYPFFSEAPNFADQTGVFEYFTNIEDPGEHHFTLRQVLNQRPITWAADASNTISIIGDYNWTNLTIKCDVYIETPDTGGVFIAGRVNKGGILIRSARGIFFWIFANGSYRVTGDLAGWIIYALGRVEVTAKKWYTLTLTIKGHFTSGMLNDKSLWTDIPVNFPKNGWAAIGTHSFEFAQFDNFLVEATR
modifications: heavily glycosylated; glycan structures not determined
notes: human galactocerebrosidase (GALC); The protein was recovered from the culture broth, and the computed 73 kDa protein moiety fits the precursor without its signal peptide (surmised); No tag is mentioned; also called human beta-galactocerebrosidase; galactocerebrosidase enzyme; source: virus filtration; ultrafiltration/diafiltration)
On to B1, for which the “stoichiometry N” value is no less than 4.
